Measurements: patent US6461841B2, “L-amino acid oxidase from Rhodococcus species” (Degussa AG, priority 2000, dated 2002)

Legend:
[1] = Storage stability of the L-amino acid oxidase as a function of the pH; format: physicochemical, Rhodococcus opacus; settings: after 100 hours in glycine NaOH buffer at pH 10 and 10.5; room temperature; 24 μg/mL protein
Description: c) Storage Stability of the L-amino Acid Oxidase as a Function of the pH L-amino acid oxidase was incubated in 0.2 M buffer of different compositions, at a protein concentration of 24, μg/mL, at room temperature. Afterwards, the residual activity was determined using 0.2 M TEA buffer, pH 7.6, and 10 mM L-ala. […] After 100 hours in glycine NaOH buffer, it was still possible to detect more than 90% activity at pH 10 and 10.5.

[2] = pH dependence of the oxidation process; format: biochemical, Rhodococcus opacus; settings: 80 mM TEA-HCl buffer; for L-alanine, L-phenylalanine and L-leucine
Description: The reaction speed of the oxidation of L-amino acids to keto acids in the presence of the L-amino acid oxidase was studied as a function of the pH in the reaction solution. The test batch (200 μL) had the following composition: 10 mM L-amino acid, 25 U/mL peroxidase from horseradish, 80 mM buffer with different pH values and compositions, 0.2 mg/mL o-dianisidine, enzyme in limiting amount.

[3] = Determination of the isoelectric point by isoelectric focusing; format: physicochemical, Rhodococcus opacus; settings: carrier ampholytes on agarose, pH range 4-6
Description: The isoelectric point of the L-amino acid oxidase was determined using isoelectric focusing with carrier ampholytes on agarose, in a pH range of 4-6. The pI is at pH 4.8. Carboanhydrase, β-lactoglobulin, trypsin inhibitor, glucose oxidase were used as marker proteins.

[4] = Storage stability of the L-amino acid oxidase at 4° C.; format: physicochemical, Rhodococcus opacus; settings: several months; 0.7 mg/mL protein; 50 mM glycine NaOH buffer, pH 8.6; sterile conditions
[5] = Enzyme test of purification fractions with L-ala (o-dianisidine/POX, 450 nm); format: biochemical, Rhodococcus opacus; settings: 0.2 M TEA-HCl, pH 7.6, 10 mM L-ala, 30° C.
Description: The cells were digested by means of wet grinding with glass beads. For this purpose, the moist bacteria mass (15 g) was suspended in 50 mM TEA-HCl buffer (pH 7.0), so that the concentration of the moist cell mass was 25%. The cell content substances were released from the ice-cooled suspension by means of mechanical digestion using a glass bead mill (SCP disintegrator, Innomed-Konsult AB, Sweden). For this purpose, the grinding container was filled with 100 mL glass beads (diameter 0.3 mm) and the cell suspension. Digestion was carried out at a stirring shaft speed of 3,000 rpm. The cooling mantle was filled with ice water before the start of the run.
15 g moist bacteria mass yielded 45 mL crude extract with a volume activity of 0.035 U/mL and a protein content of 9.4 mg/mL. From this, it can be calculated that approximately 150 units L-amino acid oxidase can be obtained from 10 L fermenter batch.
The enzyme can be purified by means of ion exchange chromatography, hydrophobic interaction chromatography, and chromatography with hydroxyl apatite as the column material. The crude extract was pumped onto a column (h 5.5×diameter 5 cm) packed with MarcoPrep High Q Support Material (Biorad, Hercules, USA), at a flow velocity of 0.2 mnL/min. The ion exchanger had previously been equilibrated with a buffer, which contained 50 mM TEA-HCl, pH 7.0. […]

B1: L-amino acid oxidase: L-amino acid oxidase (L-AAO) from Rhodococcus opacus DSM 43250, SEQ ID NO: 2, homogeneously purified (protein, listed as Rhodococcus opacus)
chain: AGDLIGKVKGSHSVVVLGGGPAGLCSAFELQKAGYKVTVLEARTRPGGRVWTARGGSEETDLSGETQKCTFSEGHFYNVGATRIPQSHITLDYCRELGVEIQGFGNQNANTFVNYQSDTSLSGQSVTYRAAKADTFGYMSELLKKATDQGALDQVLSREDKDALSEFLSDFGDLSDDGRYLGSSRRGYDSEPGAGLNFGTEKKPFAMQEVIRSGIGRNFSFDFGYDQAMMMFTPVGGMDRIYYAFQDRIGTDNIVFGAEVTSMKNVSEGVTVEYTAGGSKKSITADYAICTIPPHLVGRLQNNLPGDVLTALKAAKPSSSGKLGIEYSRRWWETEDRIYGGASNTDKDISQIMFPYDHYNSDRGVVVAYYSSGKRQEAFESLTHRQRLAKAIAEGSEIHGEKYTRDISSSFSGSWRRTKYSESAWANWAGSGGSHGGAATPEYEKLLEPVDKIYFAGDHLSNAIAWQHGALTSARDVVTHIHERVAQEA
residual activity [1]: more than 90%
pH optimum [2]: 8.5
isoelectric point (pI) [3]: 4.8
storage stability at 4° C. [4]: without any loss of activity
Spec. act. (U/mg) [5]: 4.6 U/mg
Spec. act. (U/mg) ([5]; listed as Hydroxyl apatite pool): 4.61 U/mg
